Laboratory results reported in the supplement of paper PMC10567573.

B1: TRIM15 (parent)
chain: LSQMGAQSSGKILLCPLCQEEEQA
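Also: lentivirally expressed fusions sorted by FACS into six bins by GFP to DsRed ratio, PSI derived from sequencing read proportions per bin multiplied by bin number.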

Variants of: B1
Test: protein stability index of a GFP-peptide fusion (GPS, HEK-293T) (PSI 1-6); higher = more stable
Conditions: c terminus: a fixed tail appended
For LSQMGAQSSGKILLCPLQQEEEQA [C18Q], the protein stability index was 5.56. In the case of LSQMGAQSSGKILLCPLRQEEEQA [C18R], the protein stability index is reported as 4.21. LSQMGAQSSGKILLCPLSQEEEQA [C18S] gave a protein stability index of 4.92. With LSQMGAQSSGKILLCPLTQEEEQA [C18T] the protein stability index was 4.86. In the case of LSQMGAQSSGKILLCPLVQEEEQA [C18V], the protein stability index is reported as 4.76. In the case of LSQMGAQSSGKILLCPLWQEEEQA [C18W], the protein stability index is reported as 4.59. In the case of LSQMGAQSSGKILLCPLYQEEEQA [C18Y], the protein stability index is reported as 4.27. Work on LSQMGAQSSGKILLCPLCAEEEQA [Q19A] yielded a protein stability index of 4.35. With LSQMGAQSSGKILLCPLCCEEEQA [Q19C] the protein stability index was 2.52. Work on LSQMGAQSSGKILLCPLCDEEEQA [Q19D] yielded a protein stability index of 4.16. Variant LSQMGAQSSGKILLCPLCEEEEQA [Q19E] has a protein stability index of 4.01. Work on LSQMGAQSSGKILLCPLCFEEEQA [Q19F] yielded a protein stability index of 3.62. For LSQMGAQSSGKILLCPLCGEEEQA [Q19G], the protein stability index was 3.98. With LSQMGAQSSGKILLCPLCHEEEQA [Q19H] the protein stability index was 3.24. LSQMGAQSSGKILLCPLCIEEEQA [Q19I] showed a protein stability index of 3.18. LSQMGAQSSGKILLCPLCKEEEQA [Q19K] showed a protein stability index of 3.46. Work on LSQMGAQSSGKILLCPLCLEEEQA [Q19L] yielded a protein stability index of 2.62. Variant LSQMGAQSSGKILLCPLCMEEEQA [Q19M] has a protein stability index of 3.19. Variant LSQMGAQSSGKILLCPLCNEEEQA [Q19N] has a protein stability index of 3.57. With LSQMGAQSSGKILLCPLCPEEEQA [Q19P] the protein stability index was 4.42. LSQMGAQSSGKILLCPLCREEEQA [Q19R] showed a protein stability index of 3.54. Variant LSQMGAQSSGKILLCPLCSEEEQA [Q19S] has a protein stability index of 3.23. For LSQMGAQSSGKILLCPLCTEEEQA [Q19T], the protein stability index was 3.83. Variant LSQMGAQSSGKILLCPLCVEEEQA [Q19V] has a protein stability index of 4.04. For LSQMGAQSSGKILLCPLCWEEEQA [Q19W], the protein stability index was 2.78. For LSQMGAQSSGKILLCPLCYEEEQA [Q19Y], the protein stability index was 3.73. For LSQMGAQSSGKILLCPLCQAEEQA [E20A], the protein stability index was 3.49. LSQMGAQSSGKILLCPLCQCEEQA [E20C] gave a protein stability index of 2.44. In the case of LSQMGAQSSGKILLCPLCQDEEQA [E20D], the protein stability index is reported as 4.27. LSQMGAQSSGKILLCPLCQFEEQA [E20F] gave a protein stability index of 2.27. For LSQMGAQSSGKILLCPLCQGEEQA [E20G], the protein stability index was 2.81. For LSQMGAQSSGKILLCPLCQHEEQA [E20H], the protein stability index was 2.65. For LSQMGAQSSGKILLCPLCQIEEQA [E20I], the protein stability index was 2.79. In the case of LSQMGAQSSGKILLCPLCQKEEQA [E20K], the protein stability index is reported as 3.58. LSQMGAQSSGKILLCPLCQLEEQA [E20L] showed a protein stability index of 2.82. Variant LSQMGAQSSGKILLCPLCQMEEQA [E20M] has a protein stability index of 2.73. Work on LSQMGAQSSGKILLCPLCQPEEQA [E20P] yielded a protein stability index of 3.75. Variant LSQMGAQSSGKILLCPLCQREEQA [E20R] has a protein stability index of 3.77. In the case of LSQMGAQSSGKILLCPLCQSEEQA [E20S], the protein stability index is reported as 2.64. LSQMGAQSSGKILLCPLCQTEEQA [E20T] gave a protein stability index of 3.19. LSQMGAQSSGKILLCPLCQVEEQA [E20V] showed a protein stability index of 2.79. For LSQMGAQSSGKILLCPLCQYEEQA [E20Y], the protein stability index was 2.01. Variant LSQMGAQSSGKILLCPLCQEAEQA [E21A] has a protein stability index of 3.22. In the case of LSQMGAQSSGKILLCPLCQECEQA [E21C], the protein stability index is reported as 2.55. LSQMGAQSSGKILLCPLCQEDEQA [E21D] gave a protein stability index of 3.36. Variant LSQMGAQSSGKILLCPLCQEFEQA [E21F] has a protein stability index of 2.4. With LSQMGAQSSGKILLCPLCQEGEQA [E21G] the protein stability index was 2.83. For LSQMGAQSSGKILLCPLCQEHEQA [E21H], the protein stability index was 3.31. LSQMGAQSSGKILLCPLCQEIEQA [E21I] showed a protein stability index of 2.26. LSQMGAQSSGKILLCPLCQEKEQA [E21K] showed a protein stability index of 2.85. With LSQMGAQSSGKILLCPLCQEMEQA [E21M] the protein stability index was 2.88. Work on LSQMGAQSSGKILLCPLCQENEQA [E21N] yielded a protein stability index of 2.92. Variant LSQMGAQSSGKILLCPLCQEPEQA [E21P] has a protein stability index of 3.36. LSQMGAQSSGKILLCPLCQEQEQA [E21Q] gave a protein stability index of 2.91. For LSQMGAQSSGKILLCPLCQEREQA [E21R], the protein stability index was 2.48. For LSQMGAQSSGKILLCPLCQETEQA [E21T], the protein stability index was 3.36. LSQMGAQSSGKILLCPLCQEVEQA [E21V] gave a protein stability index of 3.08. LSQMGAQSSGKILLCPLCQEWEQA [E21W] gave a protein stability index of 2.89. LSQMGAQSSGKILLCPLCQEYEQA [E21Y] showed a protein stability index of 2.82. With LSQMGAQSSGKILLCPLCQEEAQA [E22A] the protein stability index was 4.08. LSQMGAQSSGKILLCPLCQEECQA [E22C] gave a protein stability index of 2.82. For LSQMGAQSSGKILLCPLCQEEDQA [E22D], the protein stability index was 3.41. Work on LSQMGAQSSGKILLCPLCQEEFQA [E22F] yielded a protein stability index of 2.6. LSQMGAQSSGKILLCPLCQEEGQA [E22G] showed a protein stability index of 3.12. For LSQMGAQSSGKILLCPLCQEEHQA [E22H], the protein stability index was 3.67. LSQMGAQSSGKILLCPLCQEEIQA [E22I] gave a protein stability index of 2.63. In the case of LSQMGAQSSGKILLCPLCQEEKQA [E22K], the protein stability index is reported as 3.74. Work on LSQMGAQSSGKILLCPLCQEELQA [E22L] yielded a protein stability index of 3.38. With LSQMGAQSSGKILLCPLCQEEMQA [E22M] the protein stability index was 2.56. LSQMGAQSSGKILLCPLCQEENQA [E22N] gave a protein stability index of 4.15. Work on LSQMGAQSSGKILLCPLCQEEPQA [E22P] yielded a protein stability index of 2.56. With LSQMGAQSSGKILLCPLCQEEQQA [E22Q] the protein stability index was 3.2. Variant LSQMGAQSSGKILLCPLCQEESQA [E22S] has a protein stability index of 2.89. For LSQMGAQSSGKILLCPLCQEETQA [E22T], the protein stability index was 3.46. For LSQMGAQSSGKILLCPLCQEEVQA [E22V], the protein stability index was 4.13. LSQMGAQSSGKILLCPLCQEEWQA [E22W] gave a protein stability index of 2. LSQMGAQSSGKILLCPLCQEEYQA [E22Y] gave a protein stability index of 2.02. Work on LSQMGAQSSGKILLCPLCQEEEAA [Q23A] yielded a protein stability index of 2.89. With LSQMGAQSSGKILLCPLCQEEECA [Q23C] the protein stability index was 3.58. For LSQMGAQSSGKILLCPLCQEEEDA [Q23D], the protein stability index was 2.89. LSQMGAQSSGKILLCPLCQEEEEA [Q23E] showed a protein stability index of 4.53. In the case of LSQMGAQSSGKILLCPLCQEEEFA [Q23F], the protein stability index is reported as 2.96. Variant LSQMGAQSSGKILLCPLCQEEEGA [Q23G] has a protein stability index of 3.47. Variant LSQMGAQSSGKILLCPLCQEEEHA [Q23H] has a protein stability index of 3.96. For LSQMGAQSSGKILLCPLCQEEEIA [Q23I], the protein stability index was 3.2. Variant LSQMGAQSSGKILLCPLCQEEELA [Q23L] has a protein stability index of 3.12. With LSQMGAQSSGKILLCPLCQEEEMA [Q23M] the protein stability index was 3.31. LSQMGAQSSGKILLCPLCQEEENA [Q23N] gave a protein stability index of 3.67. In the case of LSQMGAQSSGKILLCPLCQEEETA [Q23T], the protein stability index is reported as 3.33. With LSQMGAQSSGKILLCPLCQEEEVA [Q23V] the protein stability index was 3.11. For LSQMGAQSSGKILLCPLCQEEEWA [Q23W], the protein stability index was 3.56. For LSQMGAQSSGKILLCPLCQEEEYA [Q23Y], the protein stability index was 3.09. With LSQMGAQSSGKILLCPLCQEEEQC [A24C] the protein stability index was 3.14. Work on LSQMGAQSSGKILLCPLCQEEEQD [A24D] yielded a protein stability index of 4.56.
